PMC12567329, “Chloroplast Hibernation-Promoting Factor PSRP1 Prevents Ribosome Degradation Under Darkness Independently of 100S Dimer Formation” (Plants, 2025)

Key:
Assay in all cases: SEC-MALS; Superdex 200 5/150 GL; 100 mM Tris-HCl pH 8.0, 150 mM NaCl, 1 mM EDTA, 10% (v/v) glycerol; 0.15 mL/min; 90 µL of each sample at 1.6 mg/mL injected
[1] = molecular target: Plastid-specific ribosomal protein 1a (PSRP1a) of Physcomitrium patens, mature form (Physcomitrium patens)
[2] = molecular target: Plastid-specific ribosomal protein 1b (PSRP1b) of Physcomitrium patens, mature form (Physcomitrium patens)
[3] = molecular target: the molecule itself

For “Plastid-specific ribosomal protein 1a (PSRP1a) of Physcomitrium patens, mature form (natural protein)”, the stoichiometry N [1] was 2.

“Plastid-specific ribosomal protein 1b (PSRP1b) of Physcomitrium patens, mature form (natural protein)” gave a stoichiometry N [2] of 2.

B1: Bacillus subtilis long-form hibernation-promoting factor (BsHPF) (natural protein, UniProt P28368 1-189, looked up)
chain: MNYNIRGENIEVTPALKDHVERKIGKLERYFDHSVDADVNVNLKFYNDKESKVEVTIPMTDLALRSEVHNEDMYNAIDLATNKLERQIRKHKTKVNRKFREQGSPKYLLANGLGSDTDIAVQDDIEEEESLDIVRQKRFNLKPMDSEEAILQMNMLGHNFFVFTNAETNLTNVVYRRNDGKYGLIEPTE
notes: Long-form hibernation-promoting factor (LHPF) of Bacillus subtilis, amplified from genomic DNA; predicted mass of the construct 24.2 kDa; Dimeric control protein of the SEC-MALS experiment; also called Bacillus subtilis LHPF
B1 was tested, and the “stoichiometry N” value [3] was 2.
